Among the data in publication PMC8065144 are stoichiometry N values, retold here.

Values joined by “and” are separate entries in the source; they are usually repeats but may differ in a detail not shown here. Equal entries are not always repeated.

In the assay the target is HA-tagged Glial Lazarillo (GLaz-HA) (Drosophila). The assay is described as follows: affinity purification on anti-HA beads and Western blot (bands of oligomers); GLaz-HA from larval brain extract concentrated on anti-HA beads, detected with anti-HA; the tetramers and dimers are destabilized into monomers by heat treatment or the reducing agent DTT.

Turning to “HA-tagged Glial Lazarillo (GLaz-HA) (ligand)”, the stoichiometry N was 4 and 2.

Usually stoichiometry N stands for a count of units in the complex or per binding partner.
